# According to the supplement of paper PMC12764529:
# ± gives the half width of the 95% confidence interval.
# Assay: folding stability dG unfold from trypsin proteolysis; higher = more stable
# Summary of the method: (§1)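 Sequencing followed digestion of designed mini-proteins with trypsin and chymotrypsin, each at 11 concentrations in threefold dilutions together with a no-protease condition. The mini-proteins were under 80 residues, had no cysteine, sat in a PA-tagged cDNA display construct, and were kept only if AlphaFold2 dimer inter-PAE was above 15. From the counts, Bayesian fitting gave K50, and unfolding free energy was derived against a sequence-predicted unfolded-state K50 and a shared folded-state K50, per protease or combined.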
row,Sequence,folding stability dG unfold [kcal/mol]
1,SAGGSAGGSAGIGSKKPVIKKNIEIEPEIKVEGGKGGSKVKIEYKAKIEIKVYIISKNNPSAGGSAGGSAGG [r17_186_TrMRF],1.28 ± 0.22
2,SAGGSAMFYLLKVELPDGKVLEIRIEATPEEKEEFVEKIKSHPEVKSVELEPISKEEAEELGFEEISAGGSA [r15_39_TrMRF],2.62 ± 0.12
3,SAGGSAGGSAGMPKRKITKIETEELPPELIRVTITLPDGTPVPVVVSPDDEEVKAIIEKLSAGGSAGGSAGG [r11_122_JUSTAS],-0.0513 ± 0.3
4,SAGTAKELAELLPGATVEVDEETGTVTVTVELDGYTVRIEIRVDPETGEIVEIRITVTNPDGEEREFELSAG [r5_367_TrROS_Hall],3.01 ± 0.077
5,SAGGSAGGSAGGMKITKVEVFERPDGYLVVKMEIELTNENGEKVKLELVFVFKPGEVIESAGGSAGGSAGGS [r10_1183_TrROS_Hall],3 ± 0.15
6,SAGGSAGGDALKELIKNMPPGEPRKITIPIKYEDGRYYRIDIEIQMNPNNGEWQLDIDIEPYPPSAGGSAGG [r6_545_TrROS],0.881 ± 0.089
7,SAGEKEVIEIEVRVTVVRRLPEDLSEEQRKALEDELEVEEVTVRVRFDLDTGRIYVEFEDGSRLEFELPSAG [r5_701_TrROS_Hall],2.67 ± 0.054
8,SAGGMMKLELEIEKEDGKKYKIEVEYNKEEPVLKIKIYDKNGKKIKEIEIKAKSLEEALEAAKKLLKSAGGS [r16_158_TrROS_Hall],3.3 ± 0.14
9,SMAKVTGYPDIFLVTIYKDGEEKTIPVNFEELVELLKKGVKKVEFTTDNPEFAEKFYKLVKSLGVPVNLKSA [r9_810_TrMRF],1.44 ± 0.016
10,SAGGSASVVLPNATVEELKEAVEKGAKEIVVVSPDPARAATIKAEIEKLHDTPVKVLTPEEAAALESAGGSA [r15_243_JUSTAS],-0.205 ± 0.037
11,SAGGSAGGSAEVFIVKFSDPAKLKAFMEKLGLSYEKGDNPKITNPEEFLKNLPLVKNVVVTKKSAGGSAGGS [r12_571_JUSTAS],0.286 ± 0.12
12,SAGGSAGGSEVLEVVLPRPDGRLVLLRVDPEGRLALVVFPDGSVRVFEVESPEEAVQRVLDAESAGGSAGGS [r12_866_TrMRF],1.92 ± 0.054
13,SAGGSTIENPNGWRIEIDIIPIKVVYRKDPNGKPKEPVAPPVWIIHIKIEFPDKNGEKKEATFMLFSAGGSA [r2_218_TrROS],2.62 ± 0.069
14,SAGGSAGGMEVVELTVDELRALLPPGAVLLVYNRKTRKLYEIPVEELEALLKPGDKVRVVVLPPSAGGSAGG [r6_893_TrROS_Hall],3.62 ± 0.17
15,SAGGSAPMFEIWFRDPEAIEKLLEESGFPVSIERFPNDPNWVKITIFMKGPMEEAQDKLREALGLESAGGSA [r15_118_TrROS],2.29 ± 0.04
16,SKKKVTIEIEIVVRVPEGDELKNMTAEELAALLAEELGVEVEIVEVELVEYDEETGEYYVRIKVKITFPESA [r9_107_TrROS_Hall],2.95 ± 0.17
17,SAKTVTLKVTLEIEINGVRVKVEATLTLELDENGELKLTLELKIEIEPAPPPKEVKLTEEEKKKLEELKSAG [r14_442_TrROS_Hall],2.44 ± 0.23
18,SAGGSADDVKIKVEYERNPENGYGQITVEVEDPDGKDLKVEIMFPNMTPEEMEKQAKDIAKEIAKKSAGGSA [r15_526_TrROS],-0.526 ± 0.21
19,SMKPGDWKWIMFRFPDAENMEITIPIPLPPGYRVWFFFMNGERHEIPAGQEIKFKMPPGEPMWMMIWIWKSA [r9_79_TrROS],3.66 ± 0.11
20,SAGKPKVKVETVTIEVDGKKIKIEVVELENGEKLVRVEVFDENGELVETKTVTLEELKKLLEKAGIEVSAGG [r19_90_TrROS_Hall],1.64 ± 0.1
21,SAGGSAGGSMTITYDPVSNTYTVNLSLEGGTKTYTVPSLEALKATLKAEGLPWGPPPITTVSASAGGSAGGS [r12_834_JUSTAS],3.43 ± 0.08

# Assay: folding stability dG unfold from chymotrypsin proteolysis; higher = more stable
# Summary of the method: as §1
row,Sequence,folding stability dG unfold [kcal/mol]
1,SAGGSAGGSAGGDKKDPGQPRQEVEIEIPVYDPNGKPKGPIEITMPAGQSLDEIADEIFNSAGGSAGGSAGG [r7_110_TrROS],1.05 ± 0.049
2,SAGGSAGGSPVVLYEVDPSTNSVTLTVEVLHPDGTPLRKEYTTNGDPLEAALRFAKAVLEEAGSAGGSAGGS [r20_33_TrMRF],0.813 ± 0.17
3,SAGGSADSVTFTDPNVEEQIVIPPYVIFKYPDGSVRIIAFDDGDKAEILEEIPFVPPLEPLHPDLESAGGSA [r15_393_TrMRF],1.11 ± 0.076
4,SAGGSAGGSKEFKVEEVGGRLYITFPDGTVVEVRFDKPVTFDLKTGKLYFPEGAEVEKRRLKESAGGSAGGS [r20_158_TrROS_Hall],1.19 ± 0.12
5,SGSSYLPLEDVKTEWKKNPNSDVYNYTTFLQTPSGEPISVTYDPKTGKITFNLPPGTTWRPGKKSEVKLESA [r9_509_JUSTAS],1.13 ± 0.23
6,SAGGSAGGSAAPVVREIEIDLPYPDGSPLTVEKVTEEPAPGTVHYEIKLPDGTVITRTVPTFSAGGSAGGSA [r18_370_JUSTAS],-1.03 ± 0.39
7,SAGGSAGEIEGEEAAKLVEDALRALDPNVRVEYEPLPGEKPLLLVRVYRVDPESGAETPLATLLIGSAGGSA [r15_682_TrMRF],2.69 ± 0.066
8,SAGGSAGGSAGKLPPGAKVEEVFEVEIEVTYLNPDTGEEVEKEKITVRVVKVDGKLVIEFSAGGSAGGSAGG [r11_415_TrROS_Hall],2.79 ± 0.31
9,SAGGEEVKTIKVTLAFYNPETGELVAEVEATATLVDGKLVLTTTVTFRPAPAGEPVTVTVTVVEPEESAGGS [r16_327_TrROS_Hall],3.63 ± 0.13
10,SAGGALILLFPHPESRTVTALFVHPDGGSETIPFPVPESIDSLEEVADRLLREARERFPVPVEVVVASAGGS [r8_166_TrMRF],1.37 ± 0.033
11,SAGGSAGGSAGPRIVAFNVPNGKTIPLFAPDGWMIRINIERDPKDGEHKMETEYVPADDISAGGSAGGSAGG [r17_287_TrROS],-0.276 ± 0.44
12,SAGGPRVEPLPLRVTYEDGVPPREVTVPLLAVTALDPETGEPVTFVNPGSLEVLAALLPPSVVSFDFSAGGS [r16_522_TrMRF],0.703 ± 0.066
13,SAGKRMPVEEIANELAKEFPPGQTREVPIRNEDGGEWITLTVYHPNGKPVWKITIRPDGEIEVEWVPLSAGG [r19_0_TrROS],2.31 ± 0.024
14,SAGGSVPERAKVVTLVLRFEEPESLGIPLLERLLRELGFPDAVLGEVRIEPLPDGSVVAVVPLLVPSAGGSA [r2_346_TrMRF],3.196 ± 0.02
15,SAGGSAGGSAGGASLKVVEREVEYYDPETGETVRVKALVTVDPNSDKEILDPEEKEKLLSSAGGSAGGSAGG [r7_557_JUSTAS],0.795 ± 0.016
16,SAGGEVLVIELSLEELKNLKPNQTVKIKLPDGSELEVRVEEVDGRLYLFVRNKENPEEVELIEEITIESAGG [r13_745_TrROS_Hall],3.48 ± 0.049
17,SAGSVETFEDPEVGRVVIVPLPGGEVLTIELPPDSITMTLTSPKGGESVTITKKMKPGEEEELIKELASSAG [r5_820_JUSTAS],-0.603 ± 0.45
18,SPKVTLTLEGKVITFPAPLAEKLLGELQRKGYKVKILSVEPDPETDEIYLVMEVEPLKPPPLPPPNPLLESA [r9_448_TrMRF],2.28 ± 0.062
19,SAGGSAGGSMPVKRELIITVTEPSSGTTRTLVVEVETEEEAEAVVAAVAAVPDRTVTEVRRLASAGGSAGGS [r12_152_JUSTAS],1.26 ± 0.022
20,SAGGGMTPVKKEYVVTLPVPPGMTEEEARELAERAAEELRPELEAKGLAYEVTFELSPEGLVTVTVVASAGG [r13_529_JUSTAS],2.41 ± 0.025
21,SAGGSAGGDEKAKEELKKKKPPKIELTVKVEVEVSEDGTVKVKAKVFGPDGKLIAEAEFTFKVKSAGGSAGG [r6_419_TrROS_Hall],2.5 ± 0.12

row,Sequence,folding stability dG unfold [kcal/mol]
1,SAGGSAGGSAGIGSKKPVIKKNIEIEPEIKVEGGKGGSKVKIEYKAKIEIKVYIISKNNPSAGGSAGGSAGG [r17_186_TrMRF],2.15 ± 0.13
2,SAGGSAMFYLLKVELPDGKVLEIRIEATPEEKEEFVEKIKSHPEVKSVELEPISKEEAEELGFEEISAGGSA [r15_39_TrMRF],3.274 ± 0.025
3,SAGGSAGGSAGMPKRKITKIETEELPPELIRVTITLPDGTPVPVVVSPDDEEVKAIIEKLSAGGSAGGSAGG [r11_122_JUSTAS],0.113 ± 0.13
4,SAGTAKELAELLPGATVEVDEETGTVTVTVELDGYTVRIEIRVDPETGEIVEIRITVTNPDGEEREFELSAG [r5_367_TrROS_Hall],2.92 ± 0.096
5,SAGGSAGGSAGGMKITKVEVFERPDGYLVVKMEIELTNENGEKVKLELVFVFKPGEVIESAGGSAGGSAGGS [r10_1183_TrROS_Hall],4.96 ± 0.2
6,SAGGSAGGDALKELIKNMPPGEPRKITIPIKYEDGRYYRIDIEIQMNPNNGEWQLDIDIEPYPPSAGGSAGG [r6_545_TrROS],2.46 ± 0.054
7,SAGEKEVIEIEVRVTVVRRLPEDLSEEQRKALEDELEVEEVTVRVRFDLDTGRIYVEFEDGSRLEFELPSAG [r5_701_TrROS_Hall],3.37 ± 0.066
8,SAGGMMKLELEIEKEDGKKYKIEVEYNKEEPVLKIKIYDKNGKKIKEIEIKAKSLEEALEAAKKLLKSAGGS [r16_158_TrROS_Hall],3.99 ± 0.2
9,SMAKVTGYPDIFLVTIYKDGEEKTIPVNFEELVELLKKGVKKVEFTTDNPEFAEKFYKLVKSLGVPVNLKSA [r9_810_TrMRF],2.7 ± 0.04
10,SAGGSASVVLPNATVEELKEAVEKGAKEIVVVSPDPARAATIKAEIEKLHDTPVKVLTPEEAAALESAGGSA [r15_243_JUSTAS],1.32 ± 0.035
11,SAGGSAGGSAEVFIVKFSDPAKLKAFMEKLGLSYEKGDNPKITNPEEFLKNLPLVKNVVVTKKSAGGSAGGS [r12_571_JUSTAS],0.54 ± 0.14
12,SAGGSAGGSEVLEVVLPRPDGRLVLLRVDPEGRLALVVFPDGSVRVFEVESPEEAVQRVLDAESAGGSAGGS [r12_866_TrMRF],2.6 ± 0.034
13,SAGGSTIENPNGWRIEIDIIPIKVVYRKDPNGKPKEPVAPPVWIIHIKIEFPDKNGEKKEATFMLFSAGGSA [r2_218_TrROS],4.61 ± 0.056
14,SAGGSAGGMEVVELTVDELRALLPPGAVLLVYNRKTRKLYEIPVEELEALLKPGDKVRVVVLPPSAGGSAGG [r6_893_TrROS_Hall],4.39 ± 0.074
15,SAGGSAPMFEIWFRDPEAIEKLLEESGFPVSIERFPNDPNWVKITIFMKGPMEEAQDKLREALGLESAGGSA [r15_118_TrROS],2.95 ± 0.014
16,SKKKVTIEIEIVVRVPEGDELKNMTAEELAALLAEELGVEVEIVEVELVEYDEETGEYYVRIKVKITFPESA [r9_107_TrROS_Hall],2.83 ± 0.13
17,SAKTVTLKVTLEIEINGVRVKVEATLTLELDENGELKLTLELKIEIEPAPPPKEVKLTEEEKKKLEELKSAG [r14_442_TrROS_Hall],3.79 ± 0.2
18,SAGGSADDVKIKVEYERNPENGYGQITVEVEDPDGKDLKVEIMFPNMTPEEMEKQAKDIAKEIAKKSAGGSA [r15_526_TrROS],1.26 ± 0.19
19,SMKPGDWKWIMFRFPDAENMEITIPIPLPPGYRVWFFFMNGERHEIPAGQEIKFKMPPGEPMWMMIWIWKSA [r9_79_TrROS],4.7 ± 0.1
20,SAGKPKVKVETVTIEVDGKKIKIEVVELENGEKLVRVEVFDENGELVETKTVTLEELKKLLEKAGIEVSAGG [r19_90_TrROS_Hall],2.2 ± 0.16
21,SAGGSAGGSMTITYDPVSNTYTVNLSLEGGTKTYTVPSLEALKATLKAEGLPWGPPPITTVSASAGGSAGGS [r12_834_JUSTAS],5.05 ± 0.063
